# T1: CS1-Fc (human, UniProt Q9NQ25 23-226)
# T1 construct: also called recombinant human CS1-Fc; CS1-Fc polypeptide; not shown: Fc portion of CS1-Fc
# T1 sequence: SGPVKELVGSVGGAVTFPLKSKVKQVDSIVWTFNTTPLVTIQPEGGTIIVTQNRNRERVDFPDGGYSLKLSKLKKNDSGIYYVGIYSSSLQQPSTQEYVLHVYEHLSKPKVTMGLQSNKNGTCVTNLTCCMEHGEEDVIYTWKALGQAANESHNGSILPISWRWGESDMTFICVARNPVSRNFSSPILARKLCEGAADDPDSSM
# Target: T1, CS1-Fc
# Assay: SPR (Biacore), adapter protein DD-GS linker-Q26, CS1-Fc target
# Source text: One or more of the above discussed methods were used to identify the SEQ ID NO: 41-47, 49-61, 91-93 and 96-106 variant CS1 specific D domains. […] In addition to binding human CS1, the CS1DD03, CSDD006 and CS1DD007 D domains are cross-reactive with cyno/rhesus CS1.
row,Kd [µM],Binder
1,0.038,"CS1DD006-P26(Q26) Adapter (designed binder, Monovalent Adapter: CS1DD006 D domain, GS linker, AFP p26 (Q26); The SPR sentence names only the format DD-GS linker-Q26; also called monovalent CS1DD006-P26(Q26); CS1DD006 adapter protein of the format DD-GS linker-Q26) MGSWAEFFTRLDAIWERLEGLGGSEAELAAFEKEIAAFESELQAYKGKGYPEVETLKFHAAGIRQKLQAYRHNGGGGDGGGGSGGGGSGQESQALAKRSCGLFQKLGEYYLQNAFLVAYTKKAPQLTSSELMAITRKMAATAATCCQLSEDKLLACGEGAADIIIGHLCIRHEMTPVNPGVGQCCTSSYANRRPCFSSLVVDETYVPPAFSDDKFIFHKDLCQAQGVALQTMKQEFLINLVKQKPQITEEQLEAVIADFSGLLEKCCQGQEQEVCFAEEGQKLISKTRAALGV"
2,0.023,CS1DD007 adapter protein of the format DD-GS linker-Q26 (designed binder) MGSWAEFFTRLDAIWERLEGLGGSEAELAALEKEIAAFESELQAYKGKGYPEVETLKFHAAGIRQKLQAYRHN

# Further lines, the binder ahead of its results:
row,Binder,Kd [µM]
1,CS1DD018 adapter protein of the format DD-GS linker-Q26 (designed binder) MGSWDEFNQRLGAFEERLQALGGSEAELAAFEKEIAAFESELQAYKGKGNPEVEFLRWYADGIRWELQAYRHNGGGGDGGGGSGGGGSGQESQALAKRSCGLFQKLGEYYLQNAFLVAYTKKAPQLTSSELMAITRKMAATAATCCQLSEDKLLACGEGAADIIIGHLCIRHEMTPVNPGVGQCCTSSYANRRPCFSSLVVDETYVPPAFSDDKFIFHKDLCQAQGVALQTMKQEFLINLVKQKPQITEEQLEAVIADFSGLLEKCCQGQEQEVCFAEEGQKLISKTRAALGV,0.04
2,"CS1DD020-P26(Q26) Adapter (designed binder, Monovalent Adapter: CS1DD020 D domain, GS linker, AFP p26 (Q26); The SPR sentence names only the format DD-GS linker-Q26; also called monovalent CS1DD020-P26(Q26); C1DD020 adapter protein of the format DD-GS linker-Q26) MGSWDEFNQRLGAIEERLQALGGSEAELAALEKEIAAFESELQAYKGKGNPEVEFLRWYADGIRWELQAYRHNGGGGDGGGGSGGGGSGQESQALAKRSCGLFQKLGEYYLQNAFLVAYTKKAPQLTSSELMAITRKMAATAATCCQLSEDKLLACGEGAADIIIGHLCIRHEMTPVNPGVGQCCTSSYANRRPCFSSLVVDETYVPPAFSDDKFIFHKDLCQAQGVALQTMKQEFLINLVKQKPQITEEQLEAVIADFSGLLEKCCQGQEQEVCFAEEGQKLISKTRAALGV",0.018

# Target: T1, CS1-Fc
# Assay: phage ELISA, CS1-Fc captured on anti-human IgG1-Fc, anti-M13-HRP, A450 target / A450 IgG1-Fc
# Protocol: To identify new CS1-specific D domains, a D domain phage library described in Intl. Appl. Pub. No. WO 2016164305 and U.S. Pat. No. 10,662,248 was screened with a CS1-Fc polypeptide following standard protocols. Individual colonies containing phagemid from the CS1 panning output were picked and phage were rescued. To assay target binding by ELISA, 96-well plates were coated with anti-human IgG1-Fc antibody followed by incubation with CS1-Fc or IgG1-Fc. Rescued phage diluted in ELISA blocking buffer was then added to each well. Binding was detected using an HRP-conjugated anti-M13 antibody and the ELISA ratio for each DD sequence was determined as the absorbance at 450 nm for target (i.e., CS1-Fc) divided by that for IgG1-Fc averaged across all screened wells containing that clone.
row,ELISA score (ratio of phage binding to CS1-Fc vs IgG-Fc) [ratio],Binder
1,18.3,SEQ ID NO 74 (designed binder) MGSWSEFWMRLTAIDMRLAALGGSEAELAAFEKEIAAFESELQAYKGKGNPEVEELRDYAAVIRESLQAYRHN
2,16.9,SEQ ID NO 69 (designed binder) MGSWYEFWSRLSAIHVRLEALGGSEAELAAFEKEIAAFESELQAYKGKGNPEVEDLRAYAAFIRSELQAYRHN
3,13.4,SEQ ID NO 83 (designed binder) MGSWTEFWARLTAIDLRLIALGGSEAELAAFEKEIAAFESELQAYKGKGNPEVEELRDYAAFIRANLQAYRHN
4,18.7,SEQ ID NO 73 (designed binder) MGSWSEFWHRLSAIDHRLGALGGSEAELAAFEKEIAAFESELQAYKGKGNPEVEELRAYAAEIRRNLQAYRHN
5,17.7,SEQ ID NO 78 (designed binder) MGSWAEFWFRLAAIQMRLYALGGSEAELAAFEKEIAAFESELQAYKGKGNPEVEDLRDYAAHIRQELQAYRHN
6,17.8,SEQ ID NO 77 (designed binder) MGSWSEFWFRLLAIEQRLEALGGSEAELAAFEKEIAAFESELQAYKGKGNPEVEDLRDYAALIREMLQAYRHN
7,10.5,SEQ ID NO 70 (designed binder) MGSWMEFWHRLTAIDSRLEALGGSEAELAAFEKEIAAFESELQAYKGKGNPEVEDLRQYAASIRKSLQAYRHN
8,16.3,SEQ ID NO 82 (designed binder) MGSWSEFWNRLIAIDYRLLALGGSEAELAAFEKEIAAFESELQAYKGKGNPEVEELRDYAAHIRWNLQAYRHN
9,16,SEQ ID NO 75 (designed binder) MGSWHEFWTRLTAIQMRLDALGGSEAELAAFEKEIAAFESELQAYKGKGNPEVEDLRAFAAQIRTHLQAYRHN
10,14.7,SEQ ID NO 87 (designed binder) MGSWTEFHNRLWAIYDRLDALGGSEAELAAFEKEIAAFESELQAYKGKGNPEVETLRHHAAGIRRSLQAYRHN
11,15.7,SEQ ID NO 65 (designed binder) MGSWVEFEWRLYAIAGRLEALGGSEAELAAFEKEIAAFESELQAYKGKGNPEVEYLRQGAARIRATLQAYRHN
12,16.6,SEQ ID NO 76 (designed binder) MGSWEEFQNRLGAIWDRLEALGGSEAELAAFEKEIAAFESELQAYKGKGNPEVESLRWHAAGIRTRLQAYRHN
13,16.3,SEQ ID NO 90 (designed binder) MGSWSEFWIRLDAIRERLWALGGSEAELAAFEKEIAAFESELQAYKGKGNPEVEELRYFAANIRQQLQAYRHN

# Continued, binder first:
row,Binder,ELISA score (ratio of phage binding to CS1-Fc vs IgG-Fc) [ratio]
1,SEQ ID NO 80 (designed binder) MGSWTEFWYRLSAIDLRLEALGGSEAELAAFEKEIAAFESELQAYKGKGNPEVEELRDYAAYIRAELQAYRHN,17.8
2,SEQ ID NO 79 (designed binder) MGSWSEFWTRLAAIDMRLNALGGSEAELAAFEKEIAAFESELQAYKGKGNPEVEDLRDYAAQIREELQAYRHN,18.7
3,SEQ ID NO 71 (designed binder) MGSWSEFWHRLSAIDARLEALGGSEAELAAFEKEIAAFESELQAYKGKGNPEVEDLRAYAAMIRNVLQAYRHN,14
4,SEQ ID NO 81 (designed binder) MGSWSEFWIRLAAIELRLSALGGSEAELAAFEKEIAAFESELQAYKGKGNPEVEELRDYAAIIRRELQAYRHN,13.8
5,SEQ ID NO 66 (designed binder) MGSWAEFWSRLSAIDERLGALGGSEAELAAFEKEIAAFESELQAYKGKGNPEVEELREYAAEIRRVLQAYRHN,18
6,SEQ ID NO 72 (designed binder) MGSWYEFWHRLTAIEQRLWALGGSEAELAAFEKEIAAFESELQAYKGKGNPEVEDLRSYAAEIRWRLQAYRHN,8.75
7,SEQ ID NO 68 (designed binder) MGSWYEFWTRLTAIQMRLDALGGSEAELAAFEKEIAAFESELQAYKGKGNPEVEDLRAFAAQIRTHLQAYRHN,13.1
8,CS1DD008 (designed binder) MGSWDEFNQRLGAIEERLQALGGSEAELAAFEKEIAAFESELQAYKGKGNPEVEFLRWYAAGIRWELQAYRHN,19.2
9,SEQ ID NO 62 (designed binder) MGSWHFFKARLAYIKQGLEALGGSEAELALFEEFIAEFESDLQQYKGKGNPEVEALRKEAAAIRDELQAYRHN,13.5
10,SEQ ID NO 84 (designed binder) MGSWIEFGWRLQAIEERLRALGGSEAELAAFEKEIAAFESELQAYKGKGNPEVEVLREWAAEIRWQLQAYRHN,16.3
11,CS1DD023 (designed binder) MGSWVEFYDRLEAIWQRLEALGGSEAELAAFEKEIAAFESELQAYKGKGNPEVEKLRRHAAGIRMRLQAYRHN,18.8
12,SEQ ID NO 86 (designed binder) MGSWIEFQTRLEAIYQRLDALGGSEAELAAFEKEIAAFESELQAYKGKGNPEVETLRWHAAGIRQYLQAYRHN,6.03
13,SEQ ID NO 88 (designed binder) MGSWEEFYVRLDAIWERLEALGGSEAELAAFEKEIAAFESELQAYKGKGNPEVEGLRWHAAGIRERLQAYRHN,13.5
14,SEQ ID NO 89 (designed binder) MGSWSEFNSRLDAIFDRLFALGGSEAELAAFEKEIAAFESELQAYKGKGNPEVEELRSHAANIRASLQAYRHN,19.6
15,SEQ ID NO 85 (designed binder) MGSWNEFNERLGAINHRLRALGGSEAELAAFEKEIAAFESELQAYKGKGNPEVEVLREGAAWIRAELQAYRHN,18.6

# Reference: patent publication US20250353908A1 (ARCELLX, published 2025)
